Results on one substance are retold here after patent US8354508B2.

This test has as its target T1, Boc-QAR-AMC.
T1 sequence (peptide, N-terminal Boc; C-terminal AMC): QAR

In the case of human Pro115 on cells (enzyme), the fluorescence of cleaved Boc-QAR-AMC (370 nm excitation, 450 nm emission), cell-based protease assay turned out to be 3 times.
